Consider 2 substances from patent US20030223991A1.

In assay [1] the target is human CD200Ra (SEQ ID NO:2) (human) (UniProt Q8TD46). Kind of assay: cell-based or functional assay.
Assay [2] concerns the target mouse CD200Ra (SEQ ID NO:6) (mouse) (UniProt Q9ES57). Kind of assay: cell-based or functional assay.
Sequence of UniProt Q9ES57 (Q9ES57 26-326 limits assumed): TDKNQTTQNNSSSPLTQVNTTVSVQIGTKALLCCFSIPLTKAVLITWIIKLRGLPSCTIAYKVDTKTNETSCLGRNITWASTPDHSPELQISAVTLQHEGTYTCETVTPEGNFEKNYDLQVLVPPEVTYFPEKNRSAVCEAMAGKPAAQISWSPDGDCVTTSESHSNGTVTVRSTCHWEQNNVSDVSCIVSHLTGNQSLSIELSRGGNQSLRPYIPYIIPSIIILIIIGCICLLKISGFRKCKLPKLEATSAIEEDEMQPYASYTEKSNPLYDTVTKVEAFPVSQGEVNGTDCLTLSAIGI

Sequence of UniProt Q8TD46 (Q8TD46 other isoform, or with tags, fused parts or gaps limits assumed): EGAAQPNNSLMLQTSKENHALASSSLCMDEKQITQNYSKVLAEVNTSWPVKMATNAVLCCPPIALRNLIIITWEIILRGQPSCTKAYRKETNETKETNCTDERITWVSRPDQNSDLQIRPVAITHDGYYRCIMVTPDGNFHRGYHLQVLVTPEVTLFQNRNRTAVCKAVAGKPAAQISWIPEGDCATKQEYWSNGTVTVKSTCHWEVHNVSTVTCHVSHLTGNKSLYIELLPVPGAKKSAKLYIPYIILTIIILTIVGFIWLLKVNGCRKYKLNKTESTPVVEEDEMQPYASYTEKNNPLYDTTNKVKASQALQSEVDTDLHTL

Turning to “huCD200-Ig (from UniProt P41217 31-232) (Fc fusion)”, the Bioassay IC50 (inhibition of β-hexosaminidase secretion by mouse mast cells expressing human CD200Ra) in assay [1] was 0.3 nM. As for “muCD200-Ig (from UniProt O54901 31-232) (Fc fusion)”, the Bioassay IC50 (inhibition of mast cell secretion) in assay [2] worked out at 1.3 nM.
